Patent publication US20050142135A1, “Agents and methods for modulating interactions between gonadotropin hormones and receptors” (University of Kentucky Research Foundation, priority 2003, published 2005)
Where a chain is given by its changes, count along the chain named.

B1: N^10A: human FSHR with Ala substituted for N10 (protein)
chain: CHHRICHCSARVFLCQESKVTEIPSDLPRNAIELRFVLTKLRVIQKGAFSGFGDLEKIEISQNDVLEVIEADVFSNLPKLHEIRIEKANNLLYINPEAFQNLPNLQYLLISNTGIKHLPDVHKIHSLQKVLLDIQDNINIHTIERNSFVGLSFESVILWLNKNGIQEIHNCAFNGTQLDELNLSDNNNLEELPNDVFHGASGPVILDISRTRIHSLPSYGLENLKKLRARSTYNLKKLPTLEKLVALMEASLTYPSHCCAFANWRRQISELHPICNKSILRQEVDYMTQARGQRSSLAEDNESSYSRGFDMTYTEFDYDLCNEVVDVTCSPKPDAFNPCEDIMGYNILRVLIWFISILAITGNIIVLVILTTSQYKLTVPRFLMCNLAFADLCIGIYLLLIASVDIHTKSQYHNYAIDWQTGAGCDAAGFFTVFASELSVYTLTAITLERWHTITHAMQLDCKVQLRHAASVMVMGWIFAFAAALFPIFGISSYMKVSICLPMDIDSPLSQLYVMSLLVLNVLAFVVICGCYIHIYLTVRNPNIVSSSSDTRIAKRMAMLIFTDFLCMAPISFFAISASLKVPLITVSKAKILLVLFHPINSCANPFLYAIFTKNFRRDFFILLSKCGCYEMQAQIYRTETSSTVHNTHPRNGHCSSAPRVTSGSTYILVPLSHLAQN
B2: L^583 A: human FSHR exoloop 3 mutant, Ala for L583 (protein)
chain: B1 chain with A10N, L584A
B3: D^26A: human FSHR with Ala substituted for D26 (protein)
chain: B1 chain with A10N, D26A
B4: C^15A: human FSHR with Ala substituted for C15 (protein)
chain: B1 chain with A10N, C15A
B5: L^583 F: human FSHR mutant, Phe for L583 (protein)
chain: B1 chain with A10N, L584F
B6: L^583 Q: human FSHR mutant, Gln for L583 (protein)
chain: B1 chain with A10N, L584Q
B7: L^14A: human FSHR with Ala substituted for L14 (protein)
chain: B1 chain with A10N, L14A
B8: wild type: wild type human FSH receptor expressed in HEK 293 cells (protein)
chain: B1 chain with A10N
B9: P^24A: human FSHR with Ala substituted for P24 (protein)
chain: B1 chain with A10N, P24A
B10: S^18A: human FSHR with Ala substituted for S18 (protein)
chain: B1 chain with A10N, S18A
B11: L^27A: human FSHR with Ala substituted for L27 (protein)
chain: B1 chain with A10N, L27A
B12: L^583 Y: human FSHR mutant, Tyr for L583 (protein)
chain: B1 chain with A10N, L584Y

Key:
[1] = test system: human FSHR; test: ^125I-FSH binding to wild type and mutant FSH receptors on intact stably transfected HEK 293 cells; details: for FSH binding / Kd compared with the wild type receptor, in words: intact HEK 293 cells
Experimental: (§1) Mutant FSHR cDNAs were prepared in the pSELECT vector using the Altered Sites Mutagenesis system (Promega), sequenced on a Beckman CEQ 2000XL capillary sequencer, subcloned into pcDNA3 (Invitrogen), and sequenced again to verify mutation sequences. […] Wild type and mutant receptor constructs were transfected into HEK 293 cells by the calcium phosphate method as previously described. Stable cell lines were established in minimum essential medium containing 10% horse serum and 500 μg/ml of G418. These cells were used for hormone binding, cAMP production. All assays were carried out in duplicate and repeated 4-5 times, and means±S.D. were calculated.
(§2) The Kd values were determined by Scatchard plots. For intracellular cAMP assay, cells were washed twice with Dulbecco's modified Eagle's medium and incubated in the medium containing 0.1 μg/ml isobutylmethylxanthine for 15 mm. Increasing concentrations of FSH were then added and incubation was continued for 45 mm at 37° C. After removing the medium, the cells were rinsed once with fresh medium without isobutylmethylxanthine, lysed in 70% ethanol, freeze-thawed in liquid nitrogen, and scraped.
Each mutant human FSHR cDNA was prepared in a pSELECT vector using the non-PCR based Altered Sites Mutagenesis System (Promega), sequenced on a Beckman CEQ 2000XL capillary sequencer and subcloned into pcDNA3 (Invitrogen) as described. After subcloning pcDNA3 the mutant cDNAs were sequenced again. Plasmids were transfected into human embryonic kidney (HEK) 293 cells by the calcium phosphate method. Stable cell lines were established in minimum essential medium containing 10% horse serum and 500 μg/ml of G-418, and then used for hormone binding and cAMP assay. All assays were carried out in duplicate and repeated 4-6 times. Means and standard variations were calculated.
(§3) Human FSH (the National Hormone and Pituitary Program) was radioiodinated as previously described for radioiodination of hCG. […] The Kd values were determined by Scatchard plots. Truncated exodomain was solubilized in Nonidet P-40 and assayed for hormone binding as described previously. For intracellular cAMP assay, cells were washed twice with Dulbecco's modified Eagle's media and incubated in the media containing isobutylmethylxanthine (0.1 mg/ml) for 15 minutes. Increasing concentrations of FSH were then added and the incubation was continued for 45 minutes at 37° C. After removing the media, the cells were rinsed once with fresh media without isobutylmethylxanthine, lysed in 70% ethanol, freeze-thawed in liquid nitrogen, and scraped. […] Exoloop 3 of FSHR was modeled based on the crystal structure of rhodopsin as a template.

[2] = test system: human FSHR; test: FSH dependent intracellular cAMP assay, wild type and mutant FSHR in HEK 293 cells; type: cell-based; details: for FSH dependent cAMP induction / EC50 compared with the wild type receptor, in words: HEK 293 cells
Experimental: as §1, §2, §3

[3] = test system: FSHR; test: ^125I-FSH binding to solubilized FSHR (NP-40); set-up: species or system human; details: solubilized mutant receptors
Experimental: Transfected cells were washed twice with ice cold 150 mM NaCl, 20 mM HEPES, pH 7.4 (buffer A). Cells were scraped on ice, collected in buffer A containing protease inhibitors (1 mM phenylmethylsulfonyl fluoride, 5 mM N-ethylmaleimide, and 10 mM EDTA), and pelleted by centrifugation at 1300×g for 10 minutes. Cells were resuspended in 0.6 ml of buffer A containing 1% NP-40, 20% glycerol, and the above protease inhibitors (buffer B), incubated on ice for 15 mm, and diluted with 5.4 ml of buffer A containing 20% glycerol plus the protease inhibitors (buffer C). The mixture was centrifuged at 100,000×g for 60 minutes. […] After incubation for 12 hours at 4° C., the solution was thoroughly mixed with 250 μl of buffer A containing bovine γ-globulin (5 μg/ml) and 750 μl of buffer A containing 20% polyethylene glycol 8000. After incubation for 10 minutes at 4° C., samples were pelleted at 1300×g for 30 mm and supernatants removed. Pellets were resuspended in 1.5 ml of buffer A containing 20% polyethylene glycol 8000, centrifuged, and counted for radioactivity.

[4] = test system: human FSHR; test: Inositol phosphate assay, FSHR exoloop 3 mutants in HEK 293 cells, FSH stimulated; type: cell-based; details: for IPt (CPM): total IP production in response to increasing concentrations of FSH, NS = not significant
Experimental: Stable cells were plated in 12 well plates and grown in inositol free DMEM (Atlanta Biologicals) supplemented with 8% heat-inactivated horse serum and 2 μCi/ml ^3H-inositol (N EN) for 48 h to 40-50% confluency. After removing the medium, the cells were incubated in 1 ml of fresh wash buffer consisting of DMEM without inositol and 15 mM HEPES (pH 7.3) for 1 hour at 37° C. This medium was removed and 0.3 ml wash buffer containing 20 mM LiCl was added and incubated for 15 minutes at 37° C. After the cells were stimulated with increasing concentrations of hormone for 30 minutes at 37° C., the incubation was terminated by the removal of medium and the addition of 0.25 ml of 0.6 N HCl to each well. The cells were scraped and transferred into microcentrifuge tubes, and the wells were again washed with 0.25 ml of 0.6 N HCl. The combined washes were treated with 0.9 ml of a mixture of chloroform:methanol (2:1), vortexed and centrifuged at 1000×g for 5 minutes at room temperature. The top aqueous layer, which was free of phospholipids, was removed and the remaining chloroform layer treated with 0.2 ml of methanol:water (1:1), vortexed and centrifuged. This aqueous layer was added to the previous aqueous layer and the samples dried in a vacuum concentrator. The dried samples were redissolved in 0.5 ml of 50 mM Tris-HCl, pH 8 and applied to Dowex AG 1-X8 formate (BIO-RAD) columns. The microcentrifuge tubes were washed twice with 0.5 ml of the same buffer and the washes applied to the columns for a total of 1.5 ml. The columns were sequentially washed with 4.5 ml H2O and 4.5 ml 60 mM ammonium formate and 5 mM sodium tetraborate to elute the free inositol and the glycerol phosphoinositol. IP1, IP2 and IP3 were sequentially eluted with 4 ml of 0.1 N formic acid in 0.2 M, 0.75 M ammonium formate and 1.1 M ammonium formate, respectively and collected in 1 ml fractions. Aliquots of 200 μl were counted for radioactivity in 1.5 ml of Ultima AF scintillation fluid (Packard). Peak radioactivities were used for the data analysis.
Target sequence in this assay (P23945 18-366 limits assumed): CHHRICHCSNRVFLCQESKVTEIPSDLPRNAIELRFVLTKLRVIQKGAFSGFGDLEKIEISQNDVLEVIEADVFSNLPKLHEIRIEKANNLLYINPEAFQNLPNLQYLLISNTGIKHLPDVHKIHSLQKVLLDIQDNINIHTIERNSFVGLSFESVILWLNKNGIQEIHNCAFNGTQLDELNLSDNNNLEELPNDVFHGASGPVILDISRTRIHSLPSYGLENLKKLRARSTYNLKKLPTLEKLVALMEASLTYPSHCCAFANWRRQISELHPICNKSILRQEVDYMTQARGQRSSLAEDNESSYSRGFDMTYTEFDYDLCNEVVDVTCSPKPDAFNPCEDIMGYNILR

| Molecule | FSH binding / Kd compared with the wild type receptor, in words [1] | FSH dependent cAMP induction / EC50 compared with the wild type receptor, in words [2] | FSH binding to receptors solubilized in NP-40 [3] | also measured |
| --- | --- | --- | --- | --- |
| B1 | improved hormone binding | lower than the wild type value | – | FSH binding / Kd compared with the wild type receptor, in words ([1]; listed as FSHR^N10A): lower than the wild type value |
| B2 | – | did not produce cAMP | – | – |
| B3 | completely abrogated hormone binding | – | did not bind | – |
| B4 | abolished hormone binding | – | did not bind | – |
| B5 | – | induced significant amounts of cAMP with reasonable EC50 values | – | – |
| B6 | – | induced a marginal level of cAMP | – | – |
| B7 | improved hormone binding | lower than the wild type value | – | FSH binding / Kd compared with the wild type receptor, in words ([1]; listed as FSHR^L14A): lower than the wild type value |
| B8 | – | – | – | Kd ([1]; ^125I-FSH binding, Scatchard plots, HEK 293 cells): 4 nM; IPt (CPM) [4]: 1,660 ± 240 CPM |
| B9 | completely abrogated hormone binding | – | did not bind | – |
| B10 | higher Kd value | considerably lower EC50 value | – | reduction (improvement) of the EC50 value of cAMP induction compared with wild type ([2]; FSH dependent cAMP): 3 fold |
| B11 | completely abrogated hormone binding | – | did not bind | – |
| B12 | – | induced significant amounts of cAMP with reasonable EC50 values | – | IP induction (IP1, IP2, IP3, IPt) in response to FSH, in words ([4]; HEK 293 cells): produced a small amount of IPt; IPt (CPM) [4]: 440 ± 17 CPM |
